Results on two substances are retold here after patent US6995019B2, “Fluorescent isothiocyanate (fitc) sinistrin, its production and use” (priority 2000, dated 2006).

For data set [1] the following is noted: background statement on prior art; cited from earlier work.
The conditions of data set [2]: background statement on prior art; cited from earlier work. This is another data set of the same source.

In the case of inulin, the “blood pressure after injection into an experimental animal” value in data set [1] is “transient reduction in blood pressure”. For the same substance, the solubility in water result in data set [2] is recorded as “only very slightly soluble in water”.

FITC-inulin: the “blood pressure after injection into an experimental animal” value in data set [1] is “transient reduction in blood pressure”. In data set [2], the solubility in water result is recorded as “only very slightly soluble in water”. The “fluorescence (presence of substance) in lung, liver and kidney sections” value (rat, 30 mg per kg at intervals of 2 days, sacrificed 4 hours after last administration) is listed as “considerable fluorescence is observed”. Moreover, the “effect of deposition in the liver” value (rat, liver, substance found mainly intracellularly) is “irreversible cell damage (cell death)”. In addition, the “effect of deposition in the lung” value (rat, lung, substance found in the corpuscles) was “leads to microstenoses and ultimately to embolism”. Further, for the setting “rats sacrificed 6 minutes after the injection, rinsed with saline solution”, the “fluorescence (accumulation) in liver, lung and kidneys” value was “accumulates in the liver, lung and kidneys”.
